Measured values as given in the supplement of paper PMC10567573.

B1: FAM189A2 (parent)
chain: PRCDLVDLGEGKICFCCEEFQPAK

Variants of: B1
Assay: protein stability index of a GFP-peptide fusion (GPS, HEK-293T) (PSI 1-6); higher = more stable
Conditions: c terminus: a fixed tail appended
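Also: lentivirally expressed fusions sorted by FACS into six bins by GFP to DsRed ratio, PSI derived from sequencing read proportions per bin multiplied by bin number.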

Protein stability index: each site, then its substitutions
E10: H 2.88 | Y 2.29 | M 2.01 | Q 2.73 | N 2.65 | P 2.88 | R 2.54 | I 2.08 | K 2.82 | L 2.08 | W 1.85 | D 3 | F 2.35 | G 3 | T 2.75 | A 2.56 | S 2.36 | C 2.63 | V 2.26
D4: K 3.44 | E 3.27 | A 2.11 | T 2.7 | F 2.11 | I 1.57 | G 2.26 | P 3.39 | R 3.56 | C 2.74 | V 2.5 | L 1.67 | H 2.85 | N 4.71 | Y 1.86 | S 2.7 | W 1.16 | Q 3.44 | M 2.46
D7: I 1.71 | C 2.92 | T 2.79 | G 3.28 | H 3.25 | K 3.76 | Q 2.2 | Y 2.12 | N 2.76 | P 3.17 | S 2.21 | E 3.05 | V 1.89 | L 2.3 | W 2.24 | M 1.93 | F 2.03 | R 2.6 | A 2.61
V6: G 3.46 | P 3.03 | L 2.6 | C 4.15 | S 3.21 | R 3.4 | M 2.65 | W 2.28 | E 3.48 | Y 2.73 | F 2.71 | T 2.98 | H 4.45 | Q 3.92 | D 3.34 | A 3.49 | I 2.49 | N 3.71 | K 3.78
R2: S 3.06 | K 2.46 | I 2.83 | M 2.41 | H 2.58 | D 3.72 | T 2.94 | Q 3.13 | L 2.8 | A 2.83 | P 3.8 | N 2.9 | F 1.65 | C 3.55 | V 2.17 | G 3.18 | Y 2.25 | E 3.35 | W 1.98
G11: D 3.28 | H 2.81 | I 1.86 | A 2.63 | E 3.44 | F 1.51 | C 2.45
L8: R 3.91 | W 3.23 | G 4.48 | P 3.58 | Y 2.21 | N 3.73 | E 3.65 | K 3.41 | H 3.98 | S 3.97 | D 3.67 | F 3.46 | C 3.87 | M 3.74 | A 3.54 | Q 4.32 | I 3.13 | T 3.92 | V 2.97
C3: N 2.25 | W 2.69 | A 2.01 | R 2.63 | K 3.07 | P 2.89 | D 3.53 | M 2.3 | G 2.98 | F 2.22 | I 2.05 | T 2.44 | V 3.33 | E 3.55 | L 2.97 | Y 1.91 | Q 3.26 | S 2.43 | H 3.31
P1: F 1.85 | L 2.84 | R 2.43 | W 2.43 | C 2.83 | M 1.86 | H 4.03 | A 2.24 | T 2.63 | Q 2.9 | N 3.39 | K 3.14 | S 3 | V 1.87 | Y 1.91 | G 3.14 | D 2.67 | I 1.78 | E 3.16
G9: V 2.52 | E 2.86 | F 1.77 | P 2.99 | M 2.04 | W 2.08 | I 2.24 | H 3.06
